# Laboratory results from the supplement of paper PMC12855868.
# B1: library; numbered along this chain (parent)
# chain: MAAAGGARLLRAASAVLGGPAGRWLHHAGSRAGSSGLLRNRGPGGSAEASRSLSVSARARSSSEDKITVHFINRDGETLTTKGKVGDSLLDVVVENNLDIDGFGACEGTLACSTCHLIFEDHIYEKLDAITDEENDMLDLAYGLTDRSRLGCQICLTKSMDNMTVRVPETVADARQSIDVGKTS
# Variants of: B1
# Assay: scaled log2 fold change in cell abundance, elesclomol vs control (0 = silent mean, 1 = nonsense mean) (scaled log2 ratio); higher = higher viability under elesclomol (loss of FDX1 cuproptosis function)
# Conditions: glucose 10 mM
# [1] = with ABC1 FDX1 KO, elesclomol 5 nM, 14 days
# [2] = with HEK293T FDX1 KO, elesclomol 40 nM, 11 days
# 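Also: variant abundance is its share of total variant reads in each endpoint sample, from next-generation sequencing of the integrated ORF PCR-amplified out of genomic DNA.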
Variant,scaled log2 fold change [1],scaled log2 fold change [2]
H122K,-0.152,-0.221
H122G,-1.06,
H122F,-0.949,
H122P,-0.0781,-0.564
H122L,-0.634,
H122R,-0.313,0.00681
H122N,0.564,0.129
H122Q,-0.0669,0.352
H122E,0.137,
H122C,-0.812,
H122S,-0.554,
H122V,0.297,-0.437
H122M,0.0412,0.368
H122Y,-0.259,
H122D,-0.343,
H122T,0.191,0.139
H122I,0.215,1.13
H122W,0.634,-0.608
I123Y,-0.0557,-0.336
I123S,0.133,0.206
I123K,0.336,0.365
I123T,0.223,0.679
I123A,-0.0959,-0.0656
I123C,0.148,0.505
I123H,0.292,-0.438

Variant,scaled log2 fold change [1],scaled log2 fold change [2]
I123P,0.506,-0.674
I123F,-0.346,0.312
I123N,-0.867,-0.142
I123Q,-0.0633,-0.755
I123W,-0.0593,-0.208
I123E,0.111,-0.217
I123D,0.248,0.132
I123V,-0.0405,
I123G,0.293,
I123M,0.264,0.00397
I123L,-0.128,-0.00641
I123R,-0.34,0.123
Y124H,0.148,1.04
Y124E,0.16,0.747
Y124D,0.088,0.872
Y124L,0.252,0.75
Y124G,-0.0904,0.69
Y124R,0.234,-0.258
Y124T,0.399,-0.214
Y124Q,0.286,-0.703
Y124V,-0.329,-0.724
Y124K,0.0432,-0.66
Y124P,0.511,0.253
Y124I,0.367,0.0274
Y124M,-0.133,-0.153

Variant,scaled log2 fold change [1],scaled log2 fold change [2]
Y124N,0.36,1.01
Y124S,0.413,0.62
Y124F,-0.497,-0.225
Y124C,0.198,-0.0461
Y124W,-0.403,-0.22
Y124A,-0.0589,
E120Y,0.267,-0.449
L127I,0.0723,0.119
L127H,0.038,0.312
L127M,0.152,0.302
L127N,0.0507,1.27
L127D,0.521,-0.11
L127K,0.682,0.253
L127A,0.297,1.31
L127E,0.573,0.536
L127F,-0.388,-0.405
L127G,0.701,-0.0303
K126A,-0.285,0.163
K126L,-0.515,-0.357
K126F,-0.00916,0.517
K126E,-0.285,0.945
K126M,0.305,0.341
K126Q,-0.973,-0.036
K126C,-0.0261,-0.165
K126R,-0.769,-0.286

Variant,scaled log2 fold change [1],scaled log2 fold change [2]
K126V,0.162,0.807
K126S,-0.46,-0.133
K126T,-0.51,-0.395
K126N,-0.104,-0.19
K126H,0.0646,0.114
K126G,0.426,0.372
K126D,0.116,0.255
K126I,-0.0257,-0.476
K126W,0.411,0.186
K126P,0.252,0.147
K126Y,-0.263,0.0548
E125L,0.17,0.357
E125H,-0.583,-0.234
E125P,-0.165,0.0466
E125V,0.114,-0.317
E125S,0.239,
E125N,-0.0561,-0.574
E125M,0.0258,
E125R,0.109,-0.189
E125G,-0.304,-0.096
E125W,-0.76,-0.135
E125D,0.426,0.469
E125F,-0.241,0.00284
E125A,-0.503,-0.173
E125C,-0.817,0.0813

Variant,scaled log2 fold change [1],scaled log2 fold change [2]
E125K,0.48,0.921
E125T,-0.0928,0.0298
E125Y,-0.278,-0.0436
E125Q,-0.176,-0.00485
D121G,0.178,-0.427
D121I,0.217,
D121R,-0.0191,1.32
D121L,-0.202,-0.00537
D121V,0.222,0.458
D121M,-0.556,1.79
D121A,-0.0978,0.0802
D121W,0.324,-0.123
D121T,-0.0111,
D121C,-0.164,-0.257
D121Y,-0.243,0.698
D121N,-0.0427,
D121H,-0.394,-0.25
D121Q,0.169,0.0204
D121S,-0.507,
D121F,0.353,
D121P,-0.198,
D121E,0.304,-0.162
